Earlier results on 1 substance are cited in paper PMC8569824.

The data set concerns the target Amyloid beta (1-40) Aβ 1-40 (Homo sapiens) (UniProt P05067). The data set can be described thus: seed-dependent aggregation inhibition.
Sequence of UniProt P05067 (P05067 1-40): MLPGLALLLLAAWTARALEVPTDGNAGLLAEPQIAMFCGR

As to L-PGDS (from UniProt P41222), the Ki was 750 nM.
